The target in one test is human TGFβ1 (human) (UniProt P01137).
The target of the next test is human TGFβ3 (human) (UniProt P10600).
Chain of UniProt P10600 (P10600 301-412 limits assumed): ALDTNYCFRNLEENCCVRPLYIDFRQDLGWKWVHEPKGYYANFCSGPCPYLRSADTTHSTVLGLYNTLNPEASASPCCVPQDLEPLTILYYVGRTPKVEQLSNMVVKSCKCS

Chain of UniProt P01137 (P01137 279-390 limits assumed): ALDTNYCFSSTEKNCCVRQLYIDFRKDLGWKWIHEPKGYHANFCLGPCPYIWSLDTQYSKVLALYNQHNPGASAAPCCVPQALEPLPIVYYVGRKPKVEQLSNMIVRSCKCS

For the substance M7824, in the test with human TGFβ1 (human), the IC50, inhibition of TGFβ1-induced Smad2 reporter activity is 0.91 nM. In addition, the IC50, inhibition of TGFβ3-induced Smad2 reporter activity with human TGFβ3 (human) was determined as 1.95 nM.

Values taken from US20240360219A1.
